Measurements: article PMC9729196, “An in silico method to assess antibody fragment polyreactivity” (Nature Communications, 2022)

B1: AT118i4h32 / wild-type human FLAG-AT1R (angiotensin II type 1 receptor) [human] (parent complex)
chain 1: MAEVQLVESGGGLVQPGGSLRLSCAASGYIYRRYRMGWYRQAPGKGREFVAAISGGSSTNYADSVKGRFTISRDNSKNTVYLQMNSLRAEDTAVYYCAAYRIVSDPRVYWGQGTQVTVSSLE
chain 2: MILNSSTEDGIKRIQDDCPKAGRHNYIFVMIPTLYSIIFVVGIFGNSLVVIVIYFYMKLKTVASVFLLNLALADLCFLLTLPLWAVYTAMEYRWPFGNYLCKIASASVSFNLYASVFLLTCLSIDRYLAIVHPMKSRLRRTMLVAKVTCIIIWLLAGLASLPAIIHRNVFFIENTNITVCAFHYESQNSTLPIGLGLTKNILGFLFPFLIILTSYTLIWKALKKAYEIQKNKPRNDDIFKIIMAIVLFFFFSWIPHQIFTFLDVLIQLGIIRDCRIADIVDTAMPITICIAYFNNCLNPLFYGFLGKKFKRYFLQLLKYIPPKAKSHSNLSTKMSTLSYRPSDNVSSSTKKPAPCFEVE

Variants of: B1
Assay: flow cytometry on cells; parent: 100; read off a plot

percent of parent | Variant
~22 % of WT | chain 1 A98W
~3 % of WT | chain 1 Y34G
~8 % of WT | chain 1 R33D
~3 % of WT | chain 1 A99H
~48 % of WT | chain 1 Y31R
~12 % of WT | chain 1 Y100D
~54 % of WT | chain 1 G56F
~99 % of WT | chain 1 G28D, chain 1 T59I
~17 % of WT | chain 1 R101D
~41 % of WT | chain 1 S54V
